In paper doi:10.1101/2025.05.23.655772:

Columns and labels:
[1] = target: catalytically inactive USP5 C335A (human) (UniProt P45974); experiment: FRET or BRET
[2] = target: ubiquitin-specific protease 5, wild type (human) (UniProt P45974); experiment: thermal shift assay
Sequence of ubiquitin-specific protease 5, wild type (human) (P45974 whole entry): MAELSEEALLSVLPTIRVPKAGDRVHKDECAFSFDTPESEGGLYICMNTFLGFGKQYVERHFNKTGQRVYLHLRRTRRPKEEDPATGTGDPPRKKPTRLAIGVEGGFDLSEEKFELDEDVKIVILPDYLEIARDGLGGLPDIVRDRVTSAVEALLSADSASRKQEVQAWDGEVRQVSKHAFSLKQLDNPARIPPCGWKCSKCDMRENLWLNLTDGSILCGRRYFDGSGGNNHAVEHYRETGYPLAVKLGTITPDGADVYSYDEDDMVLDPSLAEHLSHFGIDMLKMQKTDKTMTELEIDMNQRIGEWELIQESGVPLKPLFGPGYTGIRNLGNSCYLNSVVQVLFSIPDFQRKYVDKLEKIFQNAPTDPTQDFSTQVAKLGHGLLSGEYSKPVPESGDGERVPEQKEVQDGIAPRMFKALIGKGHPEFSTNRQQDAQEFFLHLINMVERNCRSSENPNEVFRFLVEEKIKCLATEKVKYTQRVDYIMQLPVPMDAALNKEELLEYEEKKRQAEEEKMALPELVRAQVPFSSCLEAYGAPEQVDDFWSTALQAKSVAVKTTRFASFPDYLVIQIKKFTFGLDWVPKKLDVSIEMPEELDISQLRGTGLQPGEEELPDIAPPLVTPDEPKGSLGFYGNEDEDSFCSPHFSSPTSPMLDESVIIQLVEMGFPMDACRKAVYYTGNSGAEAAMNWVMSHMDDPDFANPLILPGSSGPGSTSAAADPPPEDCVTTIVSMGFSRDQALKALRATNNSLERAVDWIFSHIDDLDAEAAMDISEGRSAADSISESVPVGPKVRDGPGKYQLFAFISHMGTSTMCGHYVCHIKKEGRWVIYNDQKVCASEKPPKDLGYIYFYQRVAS

Sequence of catalytically inactive USP5 C335A (human) (P45974 whole entry C335A): as the sequence (P45974 whole entry) above, with C335A counted along it

Row | Kd [1] | Tm of the covalent complex [2] | Substance
1 | 1000 nM | – | Cy5-labelled SDE2UBL (from UniProt Q6IQ49 1-77) (domain or fragment)
2 | – | 57.6 °C | ISG15-PA, ISG15 propargylamide activity-based probe (from UniProt P05161 1-157)
